Measured values as given in US20230416333A1 (SHATTUCK LABS, published 2023).

Assays:
[1] = target: T1, recombinant CD19-His protein (human, UniProt P15391 20-291); test: Octet (ForteBio) BLI, recombinant CD19-His immobilized on biosensor
T1 construct: Immobilized on the Octet biosensor; also called Human CD19
T1 sequence (looked up): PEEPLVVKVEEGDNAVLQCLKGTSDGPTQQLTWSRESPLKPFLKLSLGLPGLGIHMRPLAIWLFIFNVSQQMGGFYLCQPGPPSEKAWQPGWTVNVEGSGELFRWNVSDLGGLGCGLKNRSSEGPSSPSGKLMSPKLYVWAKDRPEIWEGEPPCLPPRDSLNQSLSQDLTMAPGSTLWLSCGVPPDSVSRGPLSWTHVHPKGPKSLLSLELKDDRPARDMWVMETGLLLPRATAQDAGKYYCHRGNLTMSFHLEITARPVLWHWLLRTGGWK
Text: A heterodimer lacking CD19scFv was used as a negative control.

[2] = target: T2, CD19 expressed on the cell surface (UniProt P15391 20-556); test: flow cytometry on Daudi cells; Daudi cells (CD19+), flow cytometry
T2 construct: whole, on cells; also called HEK293-CD19 cells; CD19 on Daudi cells
T2 sequence (looked up): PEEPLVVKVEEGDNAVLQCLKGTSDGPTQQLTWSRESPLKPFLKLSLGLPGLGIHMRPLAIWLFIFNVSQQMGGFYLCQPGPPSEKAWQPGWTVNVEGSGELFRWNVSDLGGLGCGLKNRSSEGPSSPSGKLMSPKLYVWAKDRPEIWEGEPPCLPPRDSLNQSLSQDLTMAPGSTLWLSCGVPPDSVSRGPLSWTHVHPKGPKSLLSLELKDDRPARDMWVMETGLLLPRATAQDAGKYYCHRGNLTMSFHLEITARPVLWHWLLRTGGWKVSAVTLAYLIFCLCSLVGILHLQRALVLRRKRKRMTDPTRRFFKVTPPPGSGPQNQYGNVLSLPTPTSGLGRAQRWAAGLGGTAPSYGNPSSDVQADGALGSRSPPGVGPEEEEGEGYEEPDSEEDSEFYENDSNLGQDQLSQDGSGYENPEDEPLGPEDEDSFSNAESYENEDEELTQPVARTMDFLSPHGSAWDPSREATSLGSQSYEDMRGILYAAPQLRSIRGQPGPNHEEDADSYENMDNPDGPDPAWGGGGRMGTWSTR

[3] = target: T2, CD19 expressed on the cell surface; test: flow cytometry on HEK293-CD19 cells, anti-Fc detection

B1: BTN2A1/3A1-Fc-CD19scFv GADLEN protein (heterodimer with charged polarized linkers) (Fc fusion)
chain 1: QFIVVGPTDPILATVGENTTLRCHLSPEKNAEDMEVRWFRSQFSPAVFVYKGGRERTEEQMEEYRGRTTFVSKDISRGSVALVIHNITAQENGTYRCYFQEGRSYDEAILHLVVAGLGSKPLISMRGHEDGGIRLECISRGWYPKPLTVWRDPYGGVAPALKEVSMPDADGLFMVTTAVIIRDKSVRNMSCSINNTLLGQKKESVIFIPESFMPSVSPCAGSGSRKGGKRGSKYGPPCPPCPAPEFLGGPSVFLFPPKPKDQLMISRTPEVTCVVVDVSQEDPEVQFNWYVDGVEVHNAKTKPREEQFNSTYRVVSVLTVLHQDWLSGKEYKCKVSSKGLPSSIEKTISNATGQPREPQVYTLPPSQEEMTKNQVSLTCLVKGFYPSDIAVEWESNGQPENNYKTTPPVLDSDGSFFLYSRLTVDKSRWQEGNVFSCSVLHEALHNHYTQKSLSLSLGKDEGGEDGSDIQMTQTTSSLSASLGDRVTISCRASQDISKYLNWYQQKPDGTVKLLIYHTSRLHSGVPSRFSGSGSGTDYSLTISNLEQEDIATYFCQQGNTLPYTFGGGTKLEITGGGSGGGSGGGSEVKLQESGPGLVAPSQSLSVTCTVSGVSLPDYGVSWIRQPPRKGLEWLGVIWGSETTYYNSALKSRLTIIKDNSKSQVFLKMNSLQTDDTAIYYCAKHYYYGGSYAMDYWGQGTSVTVSS
chain 2: not shown
notes: The residue ranges were counted from the printed parts; also called BTN2A1/3A1-Fc-CD19scFv heterodimeric protein; human BTN2A1/3A1-Fc-CD19scFv GADLEN protein
Kd [1]: 13.8 nM | EC50 [2]: 5 nM | EC50 [3]: 0.89 nM
